Data from patent publication US20040018971A1 (published 2004).

B1: Her2/neu.336 (peptide)
peptide: KPCARVCYGL
notes: native HER2/neu peptide from position 336
B2: Her2/neu.642 (peptide)
peptide: CPAEQRASPL
notes: native HER2/neu peptide from position 642

Biological target: HLA-B*0702 (human)
Experiment: competition with 125I probe peptide, purified HLA

| Binder | IC50 [nM] |
| --- | --- |
| SPGGLREL [Her2/neu.133 (8-mer)] | 100 |
| B1 | 149 |
| SPGGLRELQL [Her2/neu.133 (10-mer)] | 95 |
| B2 | 37 |

Biological target: T1, HLA-DR3 (DRB1*0301) (human)
T1 construct: purified HLA class II molecule
Experiment: competition binding assay, purified HLA, 125I-labelled probe peptide, gel filtration

| Binder | relative binding ratio |
| --- | --- |
| DNLYYWDQDPPERGA (also called Her2/neu.1218) [HER2/neu peptide DNLYYWDQDPPERGA (position 1218)] | -0.0025 ratio to standard peptide |
| KGPLPTDCCHEQCAA (also called Her2/neu.228) [HER2/neu peptide KGPLPTDCCHEQCAA (position 228)] | -0.0027 ratio to standard peptide |
| ETEYHADGGKVPIKW (also called Her2/neu.874) [HER2/neu peptide ETEYHADGGKVPIKW (position 874)] | -0.0027 ratio to standard peptide |
| GDLVDAEEYLVPQQG (also called Her2/neu.1015) [HER2/neu peptide GDLVDAEEYLVPQQG (position 1015)] | 0.025 ratio to standard peptide |
| KNGVVKDVFAFGGAV (also called Her2/neu.1177) [HER2/neu peptide KNGVVKDVFAFGGAV (position 1177)] | -0.0025 ratio to standard peptide |
| FVVIQNEDLGPASPL (also called Her2/neu.986) [HER2/neu peptide FVVIQNEDLGPASPL (position 986)] | -0.0025 ratio to standard peptide |
| IWKFPDEEGACQPCP (also called Her2/neu.613) [HER2/neu peptide IWKFPDEEGACQPCP (position 613)] | -0.0027 ratio to standard peptide |
| DLTLGLEPSEEEAPR (also called Her2/neu.1058) [HER2/neu peptide DLTLGLEPSEEEAPR (position 1058)] | -0.0025 ratio to standard peptide |
| DTILWKDIFHKNNQL (also called Her2/neu.165) [HER2/neu peptide DTILWKDIFHKNNQL (position 165)] | -0.0027 ratio to standard peptide |
| AIKVLRENTSPKANK (also called Her2/neu.751) [HER2/neu peptide AIKVLRENTSPKANK (position 751)] | 0.0075 ratio to standard peptide |
| LVTYNTDTFESMPNP (also called Her2/neu.271) [HER2/neu peptide LVTYNTDTFESMPNP (position 271)] | -0.0027 ratio to standard peptide |
| MRRLLQETELVEPLT (also called Her2/neu.687) [HER2/neu peptide MRRLLQETELVEPLT (position 687)] | -0.0027 ratio to standard peptide |

Biological target: HLA-B*0702 (human)
Experiment: competition with 125I-labelled probe peptide for purified HLA, gel filtration

| Binder | relative binding ratio |
| --- | --- |
| MPNPEGRY [HER2/neu peptide, position 282, 8 amino acids] | < 0.0006 ratio (IC50 of standard / IC50 of test peptide) |

Biological target: T2, HLA-A*0101 (human)
T2 construct: also called HLA-A1
Experiment: competition with 125I-labelled probe peptide for purified HLA-A*0101, gel filtration; relative to standard peptide

| Binder | relative binding ratio (IC50 of standard peptide / IC50 of test peptide) [relative binding ratio] |
| --- | --- |
| SMPNPEGRY [HER2/neu peptide, position 281, 9 amino acids] | 0.0028 |
| MGDLVDAEEY [HER2/neu peptide, position 1014, 10 amino acids] | 0.012 |
| NKEILDEAY [HER2/neu peptide, position 764, 9 amino acids] | 0.0017 |
| ASPLDSTFY [HER2/neu peptide, position 997, 9 amino acids] | 0.029 |
| LMTFGAKPY [HER2/neu peptide, position 915, 9 amino acids] | 0.0011 |
| ETLEEITGY [HER2/neu peptide, position 401, 9 amino acids] | 0.043 |
| MTFGAKPY [HER2/neu peptide, position 916, 8 amino acids] | -0.0021 |
| ASCVTACPY (also called Her2/neu.293) [HER2/neu peptide, position 293, 9 amino acids] | 0.055 |
| EADQCVACAHY (also called Her2/neu.580) [HER2/neu peptide, position 580, 11 amino acids] | 0.1 |
| AFSPAFDNLYY [HER2/neu peptide, position 1212, 11 amino acids] | 0.014 |
| HQSDVWSY [HER2/neu peptide, position 901, 8 amino acids] | -0.0021 |
| QIAKGMSY [HER2/neu peptide, position 828, 8 amino acids] | -0.0021 |
| PTHDPSPLQRY (H is used here) [HER2/neu peptide, position 1102, 11 amino acids] | 0.016 |
| DMGDLVDAEEY [HER2/neu peptide, position 1013, 11 amino acids] | 0.0027 |
| ETHLDMLRHLY (also called Her2/neu.40) [HER2/neu peptide, position 40, 11 amino acids] | 0.28 |
| LQDIQEVQGY [HER2/neu peptide, position 74, 10 amino acids] | 0.0015 |
| GSGAFGTVY [HER2/neu peptide, position 727, 9 amino acids] | 0.0011 |
| AFSPAFDNLY [HER2/neu peptide, position 1212, 10 amino acids] | 0.001 |
| KCSKPCARVCY [HER2/neu peptide, position 333, 11 amino acids] | -0.0017 |
| GASCVTACPY [HER2/neu peptide, position 292, 10 amino acids] | 0.0012 |
| PSGVKPDLSY [HER2/neu peptide, position 601, 10 amino acids] | 0.001 |
| LGSGAFGTVY [HER2/neu peptide, position 726, 10 amino acids] | 0.001 |
| FSPAFDNLY [HER2/neu peptide, position 1213, 9 amino acids] | 0.043 |
| LEEITGYLY [HER2/neu peptide, position 403, 9 amino acids] | 0.0057 |
| SGAFGTVY [HER2/neu peptide, position 728, 8 amino acids] | -0.0021 |
| CSKPCARVCY [HER2/neu peptide, position 334, 10 amino acids] | 0.0016 |
| PTAENPEY [HER2/neu peptide, position 1241, 8 amino acids] | 0.003 |
| FGASCVTACPY [HER2/neu peptide, position 291, 11 amino acids] | 0.01 |
